Laboratory results from patent US5948825A, “Microemulsion preparation containing a slightly absorbable substance” (Institute for Advanced Skin Research Inc., priority 1993, dated 1999).

What was measured:
[1] = absorption by the rectum (through the mucous membrane); format: in vivo; settings: rats; relative to subcutaneous injection (integrated blood concentration over time) = 100%
Description: Rats were starved from the day before experiment until there was little feces left in the abdomen. […] Immediately after the injection, the anus was bound with a rubber band to prevent the leakage of the microemulsion. Blood was sampled at specified time intervals and the concentration of the drug in the blood was determined.

[2] = administration into the nasal cavity, closure technique; format: in vivo; settings: rats; relative to subcutaneous injection (integrated blood concentration over time) = 100%
Description: Rats were anesthetized and medisected in the neck to expose the windpipe and esophagus. Part of the windpipe was incised and a polyethylene tube was inserted into the windpipe to secure the airway, followed by ligation. The nostril and the opening in the incisive caval on the oral cavity side were closed with an adhesive. Part of the esophagus was incised for insertion of a nutrition catheter until its end reached into the nasal cavity. The part of the esophagus into which the nutrition catheter was inserted was ligated. […] Blood was sampled at specified time intervals and the change in the concentration of the drug in the blood was determined over time.
Availability: Relative value with the availability upon subcutaneous

[3] = absorption by the alimentary tract (duodenum); format: in vivo, rats; settings: route not given; relative to subcutaneous injection = 100%
Description: Rats were incised in the abdomen and a silicone rubber tube was passed through the alimentary tract from the stomach wall to the duodenum, followed by suturing of the stomach wall, peritoneum and skin through which the tube penetrated. […] As in (1), blood was sampled at specified time intervals and the concentration of the drug in the blood was determined.

Substance | Availability, rectum [1] | Availability, nasal cavity [2] | availability values (macromolecular peptides such as erythropoietin) [3]
calcitonin: peptide drug of low absorbability through the mucous membrane | 22-23% | 50% | –
erythropoietin: macromolecular peptide drug | – | – | 2-3%
